Article PMC3531522, “Nasal Colonisation by Staphylococcus aureus Depends upon Clumping Factor B Binding to the Squamous Epithelial Cell Envelope Protein Loricrin” (PLoS Pathogens, 2012)

B1: GST-murine K10_(454–570) (domain or fragment, UniProt P02535 454-570, looked up)
chain: EGSSSGGGGGRRGGSGGGSYGGSSGGGSYGGSSGGGGSYGGSSGGGGSYGGGSSGGGSHGGSSGGGYGGGSSSGGAGGHGGSSGGGYGGGSSSGGQGGSGGFKSSGGGDQSSKGPRY
notes: Cytokeratin 10 (K10), murine, residues 454-570 (C-terminal tail region); also called MK10; GST-MK10; source: DNA codon optimised for E. coli, in pGEX-4T; purified on GSTrap FF; not shown: GST, N-terminal, kept
B2: GST-human K10_(544–563) (peptide)
chain: GGSSGGGSSSGGGYGGGSSS
notes: Cytokeratin 10 (K10), human, residues 544-563 (C-terminal tail region); also called HK10; GST-HK10; source: DNA codon optimised for E. coli, in pGEX-4T; purified on GSTrap FF; not shown: GST, N-terminal, kept
B3: Recombinant ClfB N2N3 (rClfB_(201–542)) (domain or fragment)
chain: AEPVVNAADAKGTNVNDKVTASNFKLEKTTFDPNQSGNTFMAANFTVTDKVKSGDYFTAKLPDSLTGNGDVDYSNSNNTMPIADIKSTNGDVVAKATYDILTKTYTFVFTDYVNNKENINGQFSLPLFTDRAKAPKSGTYDANINIADEMFNNKITYNYSSPIAGIDKPNGANISSQIIGVDTASGQNTYKQTVFVNPKQRVLGNTWVYIKGYQDKIEESSGKVSATDTKLRIFEVNDTSKLSDSYYADPNDSNLKEVTDQFKNRIYYEHPNVASIKFGDITKTYVVLVEGHYDNTGKNLKTQVIQENVDPVTNRDYSIFGWNNENVVRYGGGSADGDSAVN
notes: Clumping factor B (ClfB) of S. aureus, amino acids 201-542 (subdomains N2 and N3 of the A domain), amplified from plasmid pCU1:clfB; also called ClfB N2N3_(201–542); ClfB N23_(201–542); not shown: His6, N-terminal, kept
B4: GST-Fgα_(316–367) (domain or fragment, UniProt P02671 335-386, looked up)
chain: NSGSSGTGSTGNQNPGSPRPGSTGTWNPGSSERGSAGHWTSESSVSGSTGQW
notes: Fibrinogen α-chain, residues 316-367, repeat domain 5 of the αC region; also called repeat domain 5 of the αC region of Fg
B5: GST-human loricrin_(1–315) (natural protein, UniProt P23490 1-312, looked up)
chain: MSYQKKQPTPQPPVDCVKTSGGGGGGGGSGGGGCGFFGGGGSGGGSSGSGCGYSGGGGYSGGGCGGGSSGGGGGGGIGGCGGGSGGSVKYSGGGGSSGGGSGCFSSGGGGSGCFSSGGGGSSGGGSGCFSSGGGGSSGGGSGCFSSGGGGFSGQAVQCQSYGGVSSGGSSGGGSGCFSSGGGGGSVCGYSGGGSGCGGGSSGGSGSGYVSSQQVTQTSCAPQPSYGGGSSGGGGSGGSGCFSSGGGGGSSGCGGGSSGIGSGCIISGGGSVCGGGSSGGGGGGSSVGGSGSGKGVPICHQTQQKQAPTWPSK
notes: Loricrin, human, full length, printed as residues 1-315 (S1 to K315); also called HLor; Hlor; source: DNA codon optimised for E. coli, in pGEX-4T; purified on GSTrap FF; not shown: GST, N-terminal, kept

Assays:
Test in all cases: SPR; BIAcore X100; GST-tagged ligand captured on a CM5 chip coated with goat anti-GST IgG, GST on the reference cell; increasing concentrations of rClfB_(201–542) in PBS passed in succession without regeneration (single cycle); KD from response at equilibrium against concentration
[1] = biological target: GST-tagged human loricrin loop region 2 (human)
[2] = biological target: GST-tagged human loricrin loop region 3 (human)
[3] = biological target: GST-tagged human loricrin loop region 1A (human)
[4] = biological target: GST-tagged human loricrin loop region 2v (human)
[5] = biological target: GST-tagged human loricrin loop region 1B (human)
[6] = biological target: B3; conditions: both partners purified
[7] = biological target: T1, GST-murine loricrin_(1–480) (murine, UniProt P18165 1-486); conditions: both partners purified
T1 construct: Loricrin, murine, full length, printed as residues 1-480; The printed length (480) may differ from that of the UniProt entry; also called MLor; GST-MLor; source: DNA codon optimised for E. coli, in pGEX-4T; purified on GSTrap FF; not shown: GST, N-terminal, kept
T1 sequence (looked up): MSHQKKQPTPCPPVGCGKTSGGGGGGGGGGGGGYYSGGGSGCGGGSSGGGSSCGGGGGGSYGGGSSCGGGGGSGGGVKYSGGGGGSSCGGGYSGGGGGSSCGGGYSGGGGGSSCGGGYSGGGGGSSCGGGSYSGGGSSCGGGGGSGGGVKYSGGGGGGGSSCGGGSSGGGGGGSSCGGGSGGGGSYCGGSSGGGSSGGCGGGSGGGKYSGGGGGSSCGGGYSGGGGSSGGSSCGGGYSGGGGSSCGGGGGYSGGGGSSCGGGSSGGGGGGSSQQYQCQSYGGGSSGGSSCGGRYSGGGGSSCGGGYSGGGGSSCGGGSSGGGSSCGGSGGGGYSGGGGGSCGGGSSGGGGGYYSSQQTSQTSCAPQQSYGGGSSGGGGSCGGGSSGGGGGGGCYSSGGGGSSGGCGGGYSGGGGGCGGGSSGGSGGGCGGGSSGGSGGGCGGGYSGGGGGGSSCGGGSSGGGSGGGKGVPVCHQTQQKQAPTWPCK

[8] = biological target: B3; conditions: both partners purified; remark: listed apart in the source

Recombinant ClfB N2N3 (rClfB_(201–542)) (from UniProt O86476 201-542) (domain or fragment)
Kd [1]: 3.31 µM | Kd [2]: 5.47 µM | Kd [3]: 16.7 µM | Kd [4]: 2.21 µM | Kd [5]: 34.5 µM

B1
Kd [6]: 14.4 µM

B2
Kd [6]: 7.89 µM

B3
Kd [7]: 15.7 µM

B4
Kd [8]: 5.52 ± 1.5 µM | Kd [6]: 5.25 µM

B5
Kd [6]: 4.33 µM
